2 molecules from PMC11190147, “Structures of the Staphylococcus aureus ribosome inhibited by fusidic acid and fusidic acid cyclopentane” (Scientific Reports, 2024) can be followed below.

Experiment [1] has as its target Staphylococcus aureus 70S ribosome (S. aureus NCTC 8325-4 (endogenous)) (UniProt Q2FW21). Put plainly: cryo-EM structure; FA-CP complex: as the FA complex but with 5 uM E. coli tRNAfMet and 400 uM FA-CP instead of FA; CHI state 2.0 Å, POST state 2.4 Å.
For experiment [2] the target is unchanged. Description: cryo-EM structure; FA complex: 0.5 uM S. aureus 70S, 2 uM mRNA Z4AUGGCA, 2 uM E. coli tRNAfMet, 5 uM S. aureus EF-G, 400 uM FA, 1 mM GTP in HEPES polymix buffer (20 mM HEPES pH 7.5, 5 mM BME), 10 min steps at 37 °C; 1 ul of 25 uM FusB with 400 uM FA mixed into the drop on the grid; CHI state 2.5 Å (modelled), POST state 3.1 Å (not modelled).
For experiment [3], the target named is T1, Staphylococcus aureus elongation factor G (Staphylococcus aureus, UniProt P68790 1-693).
T1 construct: Ser-Leu that remains at the N-terminus after TEV cleavage of the 6xHis tag and linker; In the complexes EF-G carries GDP, magnesium and FA or FA-CP; also called EF-G; S. aureus EF-G; source: E. coli BL21 (DE3), purified (Ni Sepharose, TEV cleavage, reverse IMAC, Superdex-200 gel filtration); not shown: 6xHis, N-terminal, cleaved
The experiment is described as above. The settings on record: both partners purified.

“Staphylococcus aureus elongation factor G (from UniProt P68790 1-693) (natural protein)” yielded a percent of 70S particles that contain EF-G in experiment [1] of 72%. The percent of ribosomes bound to EF-G in experiment [2] was 60%.

B1: Staphylococcus aureus ribosomal protein uL6 (natural protein, S. aureus NCTC 8325-4 (endogenous), UniProt Q2FW21 1-178, looked up)
chain: MSRVGKKIIDIPSDVTVTFDGNHVTVKGPKGELSRTLNERMTFKQEENTIEVVRPSDSKEDRTNHGTTRALLNNMVQGVSQGYVKVLELVGVGYRAQMQGKDLILNVGYSHPVEIKAEENITFSVEKNTVVKVEGISKEQVGALASNIRSVRPPEPYKGKGIRYQGEYVRRKEGKTGK
notes: Large-subunit ribosomal protein uL6 of S. aureus, encoded by rplF, as it stands in the native 70S ribosome; Present as a subunit of the 70S ribosome, not as an isolated protein; source: endogenous, in 70S ribosomes purified from S. aureus NCTC 8325-4 (sucrose cushions, zonal centrifugation)
On to B1, for which, in experiment [3], the binding result is “binds”.
